# Data reported in article PMC2709225 (Nature structural & molecular biology, 2009).
# B1: stabilised full-length ectodomain of human hedgehog-interacting protein HIP (eHIPS) (domain or fragment, UniProt Q96QV1-1 56-670, looked up)
# chain: MSQLELLSGGEMLCGGFYPRLSCCLRSDSPGLGRLENKIFSVTNNTECGKLLEEIKCALCSPHSQSLFHSPEREVLERDLVLPLLCKDYCKEFFYTCRGHIPGFLQTTADEFCFYYARKDGGLCFPDFPRKQVAGPASNYLDQMEEYDKVEEISAAHKHNCFCIQEVVSGLRQPVGALHSGDGSQRLFILEKEGYVKILTPEGEIFKEPYLDIHKLVQSGIKGGDERGLLSLAFHPNYKKNGKLYVSYTTNQERWAIGPHDHILRVVEYTVSRKNPHQVDLRTARVFLEVAELHRKHLGGQLLFGPDGFLYIILGDGMITLDDMEEMDGLSDFTGSVLRLDVDTDMCNVPYSIPRSNPHFNSTNQPPEVFAHGLHDPGRCAVDRHPTDININLTILCSDSNGKNRSSARILQIIKGKDYESEPSLLEFKPFSNGPLVGGFVYRGCQSERLYGSYVFGDRNGNFLTLQQSPVTKQWQEKPLCLGTSGSCRGYFSGHILGFGEDELGEVYILSSSKSMTQTHNGKLYKIVDPKRPLMPEECRATVQPAQTLTSECSRLCRNGYCTPTGKCCCSPGWEGDFCRTAKCEPACRHGGVCVRPNKCLCKKGYLGPQCEQVD
# modifications: enzymatically biotinylated within an engineered C-terminal tag (form attached to the SPR surface); fully glycosylated for MALS
# Target: the molecule itself
# Assay: SEC-MALS
protein,measurement,value
B1,stoichiometry N,2
